From US20230272016A1, “PEPTIDES FOR IMMUNOTHERAPY” (Second Genome, Inc., priority 2020, published 2023)

Legend:
[1] = test system: Protein AMBP; assay: Pull-down and mass spectrometry target capture; assay type: binding, human; details: 100.0 = no target protein observed in the control pulldown
Protocol: (§1) To identify binding partners of SG-3-0020 in human cells, pull-down and mass spectrometry analysis were used (FIG. 15). Multiple target capture experiments were performed with SG-3-0020 and controls. Binding conditions and cross-linkers were varied to achieve maximum enrichment of peptide over controls. Nine putative binding partners to SG-3-0020 were identified using MS and were nominated for confirmation using CRISPR Knock Out (KO) Experiments (Table 12, FIG. 16). The enrichment ratio was calculated as described below: […]

[2] = target: T1, CD2 (cluster of differentiation 2) (Homo sapiens, UniProt P06729); assay: Pull-down and mass spectrometry target capture; assay type: binding; details: 100.0 = no target protein observed in the control pulldown
T1 construct: endogenous in cells
T1 sequence (P06729 25-351): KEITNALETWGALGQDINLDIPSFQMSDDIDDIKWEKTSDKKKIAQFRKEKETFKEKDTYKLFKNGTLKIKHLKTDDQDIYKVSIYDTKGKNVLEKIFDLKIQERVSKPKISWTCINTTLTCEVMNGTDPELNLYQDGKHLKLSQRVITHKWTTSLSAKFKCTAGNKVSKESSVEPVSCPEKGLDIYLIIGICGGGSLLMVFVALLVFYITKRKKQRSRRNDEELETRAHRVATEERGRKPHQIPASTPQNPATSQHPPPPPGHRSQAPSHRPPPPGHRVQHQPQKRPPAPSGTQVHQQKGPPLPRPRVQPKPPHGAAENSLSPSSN
Protocol: as §1

[3] = target: T2, Prohibitin (Homo sapiens, UniProt P35232); assay: Pull-down and mass spectrometry target capture; assay type: binding; details: 100.0 = no target protein observed in the control pulldown
T2 construct: endogenous in cells
T2 sequence (P35232 1-272): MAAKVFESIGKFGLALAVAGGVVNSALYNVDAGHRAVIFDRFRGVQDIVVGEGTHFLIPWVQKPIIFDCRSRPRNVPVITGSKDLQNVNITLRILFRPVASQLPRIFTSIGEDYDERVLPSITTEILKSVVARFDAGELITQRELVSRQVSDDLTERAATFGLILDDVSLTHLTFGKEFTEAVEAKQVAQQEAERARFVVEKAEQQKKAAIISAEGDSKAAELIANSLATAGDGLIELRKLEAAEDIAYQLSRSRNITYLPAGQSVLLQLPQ
Protocol: as §1

[4] = target: T3, Tumor necrosis factor receptor superfamily member 4 (Homo sapiens, UniProt P43489); assay: Pull-down and mass spectrometry target capture; assay type: binding; details: 100.0 = no target protein observed in the control pulldown
T3 construct: endogenous in cells
T3 sequence (P43489 29-277): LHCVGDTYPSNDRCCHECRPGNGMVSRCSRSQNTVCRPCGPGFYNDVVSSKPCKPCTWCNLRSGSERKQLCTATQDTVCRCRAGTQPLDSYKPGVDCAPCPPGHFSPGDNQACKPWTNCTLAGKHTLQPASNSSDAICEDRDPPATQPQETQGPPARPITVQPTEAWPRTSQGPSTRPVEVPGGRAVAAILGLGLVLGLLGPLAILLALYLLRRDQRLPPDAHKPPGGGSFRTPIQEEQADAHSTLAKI
Protocol: as §1

[5] = test system: primary human unstimulated T cells; assay: CRISPR knock-out target validation in T cells stimulated with anti-CD3 and peptide; assay type: cell-based; details: targets identified from mass spectrometry
Protocol: Functional validation was performed by CRISPR knock-out to confirm target effects on SG-3-0020-mediated activity. […] RNPs were introduced into primary human unstimulated T cells via Nucleofection and cells were cultured for 96 hours. OR1A1 served as negative control and CD3E was used as positive control. Post knock-down T cells were stimulated in vitro culture of Purified T cells with anti-CD3 (0.1 μg/mL) and SG-3-05429 (mutant SG-3-0020 with improved activity) (10 μM) and was incubated for 48 hours. A decrease in IFN-γ secretion (FIG. 17A) and a decrease in activated CD4 and CD8 T cell subsets was also observed (CD25+, PD-1+=Markers of T cell activation) (FIG. 17B) was observed after target knock-down compared to the negative control (OR1A1). […] Activation of CD2 has the potential to be a therapeutic opportunity.

[6] = test system: naïve CD4+ and CD8+ T cells (Th0); details: incubation of a naïve T cell with the polypeptide; cited from earlier work
[7] = target: Bone marrow stromal antigen 2 (Homo sapiens, UniProt Q10589); assay: Pull-down and mass spectrometry target capture; assay type: binding; parameters: endogenous in cells; details: 100.0 = no target protein observed in the control pulldown
Protocol: as §1

[8] = target: Cation-independent mannose-6-phosphate receptor (Homo sapiens, UniProt P11717); assay: Pull-down and mass spectrometry target capture; assay type: binding; parameters: endogenous in cells; details: 100.0 = no target protein observed in the control pulldown
Protocol: as §1

[9] = target: Low-density lipoprotein receptor (Homo sapiens, UniProt P01130); assay: Pull-down and mass spectrometry target capture; assay type: binding; parameters: endogenous in cells; details: 100.0 = no target protein observed in the control pulldown
Protocol: as §1

[10] = target: Teneurin-3 (Homo sapiens, UniProt Q9P273); assay: Pull-down and mass spectrometry target capture; assay type: binding; parameters: endogenous in cells; details: 100.0 = no target protein observed in the control pulldown
Protocol: as §1

[11] = target: Tumor necrosis factor (Homo sapiens, UniProt P01375); assay: Pull-down and mass spectrometry target capture; assay type: binding; parameters: endogenous in cells; details: 100.0 = no target protein observed in the control pulldown
Protocol: as §1

[12] = target: T4, CXCR3 (human, UniProt P49682 1-368); assay: CXCR3 activity assay with ligand, with SG-3-00802 or SG-3-05021 added
T4 construct: whole, on cells; The reporter constructs are not described; also called CSCR3
T4 sequence (looked up): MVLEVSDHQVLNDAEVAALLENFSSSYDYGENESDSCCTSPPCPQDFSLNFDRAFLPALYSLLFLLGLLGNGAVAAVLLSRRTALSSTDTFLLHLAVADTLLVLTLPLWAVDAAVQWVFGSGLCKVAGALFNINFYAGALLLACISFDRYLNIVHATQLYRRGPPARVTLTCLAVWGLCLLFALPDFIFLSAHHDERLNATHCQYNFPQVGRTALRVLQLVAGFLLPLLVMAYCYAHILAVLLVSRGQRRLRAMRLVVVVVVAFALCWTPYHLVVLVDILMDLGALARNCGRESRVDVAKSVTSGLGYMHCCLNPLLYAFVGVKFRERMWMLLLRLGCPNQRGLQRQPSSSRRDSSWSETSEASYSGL

[13] = target: T4, CXCR3; assay: cell-based or functional assay
[14] = target: CXCR4 (human, UniProt P61073 1-352); assay: cell-based or functional assay
[15] = target: T5, CCR9 (human, UniProt P51686 1-369, limits assumed); assay: cell-based or functional assay
T5 sequence (looked up): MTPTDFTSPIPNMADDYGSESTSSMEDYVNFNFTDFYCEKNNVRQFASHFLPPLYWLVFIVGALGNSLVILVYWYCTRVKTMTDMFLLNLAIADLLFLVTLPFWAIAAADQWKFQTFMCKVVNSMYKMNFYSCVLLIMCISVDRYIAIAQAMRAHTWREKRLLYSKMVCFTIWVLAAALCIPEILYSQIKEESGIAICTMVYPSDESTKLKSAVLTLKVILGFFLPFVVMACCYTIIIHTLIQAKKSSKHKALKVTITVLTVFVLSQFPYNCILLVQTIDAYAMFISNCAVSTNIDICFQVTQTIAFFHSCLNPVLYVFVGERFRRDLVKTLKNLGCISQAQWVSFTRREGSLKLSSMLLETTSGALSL

[16] = target: T6, CHRM5 (human, UniProt P08912 1-532); assay: cell-based or functional assay
T6 sequence (looked up): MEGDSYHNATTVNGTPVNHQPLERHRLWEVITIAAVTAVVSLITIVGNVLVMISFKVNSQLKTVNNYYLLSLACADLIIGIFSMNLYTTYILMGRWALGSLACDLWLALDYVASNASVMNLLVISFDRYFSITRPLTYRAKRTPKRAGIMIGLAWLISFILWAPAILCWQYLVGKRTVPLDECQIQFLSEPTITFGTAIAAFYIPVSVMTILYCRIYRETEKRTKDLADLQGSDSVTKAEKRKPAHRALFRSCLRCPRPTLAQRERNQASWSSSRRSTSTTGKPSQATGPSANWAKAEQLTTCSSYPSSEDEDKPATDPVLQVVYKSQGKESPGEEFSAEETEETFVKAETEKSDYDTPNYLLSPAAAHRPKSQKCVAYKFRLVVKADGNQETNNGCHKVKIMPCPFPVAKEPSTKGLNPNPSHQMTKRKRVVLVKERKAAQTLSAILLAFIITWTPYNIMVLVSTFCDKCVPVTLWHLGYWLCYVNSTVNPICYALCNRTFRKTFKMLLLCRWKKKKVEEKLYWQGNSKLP

[17] = target: T7, HCRTR2 (human, UniProt O43614 1-444); assay: cell-based or functional assay
T7 sequence (looked up): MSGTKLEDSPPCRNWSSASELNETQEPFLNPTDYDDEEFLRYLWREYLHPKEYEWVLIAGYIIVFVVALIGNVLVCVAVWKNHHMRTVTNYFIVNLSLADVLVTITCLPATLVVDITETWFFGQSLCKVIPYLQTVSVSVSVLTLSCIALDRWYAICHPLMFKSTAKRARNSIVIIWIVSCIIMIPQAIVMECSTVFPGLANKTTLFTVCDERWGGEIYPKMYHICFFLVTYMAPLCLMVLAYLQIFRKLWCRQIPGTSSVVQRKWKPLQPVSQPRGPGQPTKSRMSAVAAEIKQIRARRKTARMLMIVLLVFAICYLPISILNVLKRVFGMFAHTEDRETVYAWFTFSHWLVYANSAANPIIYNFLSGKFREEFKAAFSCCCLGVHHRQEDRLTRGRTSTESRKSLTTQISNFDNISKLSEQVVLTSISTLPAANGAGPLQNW

[18] = target: T8, MRGPRX2 (human, UniProt Q96LB1 1-330); assay: cell-based or functional assay
T8 sequence (looked up): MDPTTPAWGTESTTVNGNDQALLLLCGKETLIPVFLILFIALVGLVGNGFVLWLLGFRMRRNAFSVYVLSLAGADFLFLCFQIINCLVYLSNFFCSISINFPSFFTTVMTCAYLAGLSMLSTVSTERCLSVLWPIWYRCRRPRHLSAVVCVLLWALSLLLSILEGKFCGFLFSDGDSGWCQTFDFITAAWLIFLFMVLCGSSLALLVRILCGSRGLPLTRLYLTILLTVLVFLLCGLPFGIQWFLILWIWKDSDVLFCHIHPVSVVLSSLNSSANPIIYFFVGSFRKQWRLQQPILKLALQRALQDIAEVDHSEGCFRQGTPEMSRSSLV

[19] = target: SSTR1 (human, UniProt P30872 1-391); assay: cell-based or functional assay
[20] = target: TSHR(L) (human, UniProt P16473-1 21-764, limits assumed); assay: cell-based or functional assay
Chain of TSHR(L) (P16473 21-764 limits assumed): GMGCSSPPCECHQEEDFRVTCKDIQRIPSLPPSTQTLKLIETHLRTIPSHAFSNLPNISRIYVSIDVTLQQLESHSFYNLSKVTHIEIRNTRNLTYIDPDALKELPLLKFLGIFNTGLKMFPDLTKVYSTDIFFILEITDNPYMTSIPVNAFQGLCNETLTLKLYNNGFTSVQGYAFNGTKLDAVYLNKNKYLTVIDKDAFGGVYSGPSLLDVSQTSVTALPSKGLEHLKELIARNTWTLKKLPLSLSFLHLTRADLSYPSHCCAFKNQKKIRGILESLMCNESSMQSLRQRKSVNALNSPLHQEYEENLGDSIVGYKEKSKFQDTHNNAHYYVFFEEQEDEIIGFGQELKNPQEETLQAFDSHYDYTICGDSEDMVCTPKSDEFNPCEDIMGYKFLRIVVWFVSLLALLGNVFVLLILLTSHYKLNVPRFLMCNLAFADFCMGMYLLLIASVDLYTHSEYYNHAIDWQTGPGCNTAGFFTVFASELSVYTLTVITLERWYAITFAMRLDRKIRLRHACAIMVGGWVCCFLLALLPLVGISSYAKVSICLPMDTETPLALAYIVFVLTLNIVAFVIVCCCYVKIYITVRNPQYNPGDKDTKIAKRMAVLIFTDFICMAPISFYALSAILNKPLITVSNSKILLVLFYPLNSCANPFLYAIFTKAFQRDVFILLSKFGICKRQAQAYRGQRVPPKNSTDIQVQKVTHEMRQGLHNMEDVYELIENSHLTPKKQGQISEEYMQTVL

Chain of SSTR1 (P30872 whole entry): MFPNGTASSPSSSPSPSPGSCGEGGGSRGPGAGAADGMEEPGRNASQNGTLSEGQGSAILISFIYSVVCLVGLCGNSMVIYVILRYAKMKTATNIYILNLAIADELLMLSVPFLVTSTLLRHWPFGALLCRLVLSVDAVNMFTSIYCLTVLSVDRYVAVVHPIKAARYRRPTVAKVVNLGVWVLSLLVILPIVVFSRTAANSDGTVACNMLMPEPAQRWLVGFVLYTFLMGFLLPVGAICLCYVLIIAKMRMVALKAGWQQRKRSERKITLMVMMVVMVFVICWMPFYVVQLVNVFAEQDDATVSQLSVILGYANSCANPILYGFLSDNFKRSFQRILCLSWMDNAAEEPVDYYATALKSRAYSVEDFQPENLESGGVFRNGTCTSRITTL
Chain of CXCR4 (P61073 whole entry): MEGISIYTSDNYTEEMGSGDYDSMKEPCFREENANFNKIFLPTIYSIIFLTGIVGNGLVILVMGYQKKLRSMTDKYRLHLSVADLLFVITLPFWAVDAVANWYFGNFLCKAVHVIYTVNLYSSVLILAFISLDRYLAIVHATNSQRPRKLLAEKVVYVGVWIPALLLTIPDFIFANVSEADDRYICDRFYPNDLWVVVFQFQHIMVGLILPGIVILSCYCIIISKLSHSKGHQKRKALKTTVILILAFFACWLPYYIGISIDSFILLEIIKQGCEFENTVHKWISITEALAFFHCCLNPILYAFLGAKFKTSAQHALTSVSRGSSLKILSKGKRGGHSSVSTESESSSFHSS
Chain of Low-density lipoprotein receptor (P01130 22-860): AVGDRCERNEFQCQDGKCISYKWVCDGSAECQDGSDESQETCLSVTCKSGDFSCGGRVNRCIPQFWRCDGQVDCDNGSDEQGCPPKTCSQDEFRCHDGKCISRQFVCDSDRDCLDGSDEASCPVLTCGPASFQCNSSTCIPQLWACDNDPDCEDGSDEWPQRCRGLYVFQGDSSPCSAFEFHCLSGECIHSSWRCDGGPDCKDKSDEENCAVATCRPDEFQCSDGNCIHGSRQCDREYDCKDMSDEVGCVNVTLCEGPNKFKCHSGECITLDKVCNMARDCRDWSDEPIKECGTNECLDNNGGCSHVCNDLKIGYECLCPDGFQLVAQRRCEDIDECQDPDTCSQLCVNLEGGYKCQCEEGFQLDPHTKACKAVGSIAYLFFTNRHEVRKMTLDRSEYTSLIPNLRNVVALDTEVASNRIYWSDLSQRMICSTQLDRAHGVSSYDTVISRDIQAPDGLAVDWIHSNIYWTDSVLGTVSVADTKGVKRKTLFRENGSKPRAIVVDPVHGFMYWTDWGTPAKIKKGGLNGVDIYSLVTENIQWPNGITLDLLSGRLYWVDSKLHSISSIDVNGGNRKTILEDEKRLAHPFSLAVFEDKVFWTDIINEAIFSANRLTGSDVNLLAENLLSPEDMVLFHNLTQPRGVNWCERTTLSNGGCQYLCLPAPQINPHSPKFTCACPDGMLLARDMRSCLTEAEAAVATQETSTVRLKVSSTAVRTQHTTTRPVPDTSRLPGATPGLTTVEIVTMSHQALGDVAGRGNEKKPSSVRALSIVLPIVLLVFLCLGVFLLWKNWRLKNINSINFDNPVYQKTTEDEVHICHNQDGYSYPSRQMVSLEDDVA
Chain of Bone marrow stromal antigen 2 (Q10589 1-161 limits assumed): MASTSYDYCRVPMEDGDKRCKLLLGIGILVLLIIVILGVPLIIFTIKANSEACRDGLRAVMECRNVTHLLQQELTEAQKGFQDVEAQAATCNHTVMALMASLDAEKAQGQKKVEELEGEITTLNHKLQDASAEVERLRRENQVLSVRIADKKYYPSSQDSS
Chain of Tumor necrosis factor (P01375 whole entry): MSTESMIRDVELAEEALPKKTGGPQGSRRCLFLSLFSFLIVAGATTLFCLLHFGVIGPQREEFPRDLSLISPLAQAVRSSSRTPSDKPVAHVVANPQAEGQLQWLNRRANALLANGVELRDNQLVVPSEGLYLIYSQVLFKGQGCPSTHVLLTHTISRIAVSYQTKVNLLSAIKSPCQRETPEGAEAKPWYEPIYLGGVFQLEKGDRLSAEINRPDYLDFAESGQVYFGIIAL

**Q.** For “MLSTKKTKTHDHYPCGRMRDPGWHDWRACLTHQGIEEDEWPV [SG-3-0020, Bifidobacterium polypeptide]”, which Enrichment ratio [1] is on record?
**A.** Its Enrichment ratio is 69.1.

**Q.** And the Enrichment ratio [2]?
**A.** The Enrichment ratio was 1.9.

**Q.** What about the Enrichment ratio [3] of the same molecule?
**A.** Its Enrichment ratio is 1.9.

**Q.** What about the Enrichment ratio [4] of the same molecule?
**A.** The Enrichment ratio was 100.0.

**Q.** And the “human targets confirmed via CRISPR KO experiments” value [5]?
**A.** Its value is “CD2, BST2, and TNF”.

**Q.** What about the “number of CD4+ and/or CD8+ T cells having a CD25+/FoxP3− phenotype” value [6] of the same molecule?
**A.** The value was “increase”.

**Q.** And the Enrichment ratio [7]?
**A.** The Enrichment ratio was 34.5.

**Q.** And the Enrichment ratio [8]?
**A.** Its Enrichment ratio is 2.1.

**Q.** What about the Enrichment ratio [9] of the same molecule?
**A.** The Enrichment ratio was 100.0.

**Q.** What about the Enrichment ratio [10] of the same molecule?
**A.** The Enrichment ratio was 3.4.

**Q.** And the Enrichment ratio [11]?
**A.** Its Enrichment ratio is 67.2.

B1: CXCL11 (ligand, UniProt O14625 22-94, looked up)
chain: FPMFKRGRCLCIGPGVKAVKVADIEKASIMYPSNNCDKIEVIITLKENKGQRCLNPKSKQARLIIKKVERKNF
**Q.** Does B1 bind [12]?
**A.** Result: binds

B2: SG-3-00802 (peptide)
peptide: MKVRPSVKPMCEKCKIIRRKGRVMVICENPKHKQRQG
**Q.** For B2, which “% Agonist Activity, PathHunter β-arrestin” value (shortened to “% Agonist Activity”) [13] is on record?
**A.** Its value is -4%.

**Q.** And the “% Antagonist Activity, PathHunter β-arrestin” value (from here on “% Antagonist Activity”) [13]?
**A.** Its value is -32%.

**Q.** What about the “% Agonist Activity” value [14] of the same molecule?
**A.** The value was -14%.

**Q.** And the “% Antagonist Activity” value [14]?
**A.** Its value is 99%.

**Q.** What about the “% Agonist Activity” value [15] of the same molecule?
**A.** The value was 2%.

**Q.** What about the “% Antagonist Activity” value [15] of the same molecule?
**A.** Its value is -48%.

**Q.** And the “% Agonist Activity” value [16]?
**A.** Its value is 28%.

**Q.** What about the “% Antagonist Activity” value [16] of the same molecule?
**A.** The value was 11%.

**Q.** And the “% Agonist Activity” value [17]?
**A.** The value was 0%.

**Q.** And the “% Antagonist Activity” value [17]?
**A.** The value was 67%.

**Q.** And the “% Agonist Activity” value [18]?
**A.** The value was 66%.

**Q.** What about the “% Antagonist Activity” value [18] of the same molecule?
**A.** The value was -9%.

**Q.** What about the “% Agonist Activity” value [19] of the same molecule?
**A.** Its value is -137%.

**Q.** And the “% Antagonist Activity” value [19]?
**A.** Its value is 61%.

**Q.** What about the “% Agonist Activity” value [20] of the same molecule?
**A.** Its value is 3%.

**Q.** And the “% Antagonist Activity” value [20]?
**A.** Its value is 77%.
